In PMC5906708, “Manipulation of Light Signal Transduction Factors as a Means of Modifying Steroidal Glycoalkaloids Accumulation in Tomato Leaves”:

Key:
[1] = molecular target: SlPIF3 (GST-PIF3) (Solanum lycopersicum, UniProt A0A3Q7EQR7 388-618); experiment: EMSA; LightShift Chemiluminescent EMSA kit, 25 min at 22 C, 6% native PAGE; buffer, salt and pH not stated; details: protein: recombinant, tags: GST (pGEX-4T-1), chain copies: 2, label: biotin
[2] = molecular target: T1, SlHY5 (GST-HY5) (Solanum lycopersicum, UniProt Q9SM50 1-158); experiment: as above; details: protein: recombinant, tags: GST (pGEX-4T-1), chain copies: 2, label: biotin
T1 sequence: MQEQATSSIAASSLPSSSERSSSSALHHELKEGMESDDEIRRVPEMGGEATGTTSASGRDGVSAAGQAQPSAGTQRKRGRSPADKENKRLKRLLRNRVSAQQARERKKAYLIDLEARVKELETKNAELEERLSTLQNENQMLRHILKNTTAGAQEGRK

Sequence of SlPIF3 (GST-PIF3) (A0A3Q7EQR7 entry or part of it): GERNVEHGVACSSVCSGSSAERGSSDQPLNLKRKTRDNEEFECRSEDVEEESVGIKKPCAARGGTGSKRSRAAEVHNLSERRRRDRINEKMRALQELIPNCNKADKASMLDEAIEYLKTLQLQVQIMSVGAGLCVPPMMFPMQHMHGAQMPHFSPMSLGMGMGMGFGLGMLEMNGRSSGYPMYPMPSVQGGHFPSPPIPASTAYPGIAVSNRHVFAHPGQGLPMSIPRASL

Row | Binder | binding result ([1]; blunt) | binding result ([2]; blunt) | binding result [1] | binding result [2]
1 | GAME6 probe (dsDNA) DNA 1: ATAATAACACCGTTTCTCTGCTTTAAGCGTGCTTTTTATCTCATAACTAAAAACT DNA 2: AGTTTTTAGTTATGAGATAAAAAGCACGCTTAAAGCAGAGAAACGGTGTTATTAT | no binding | no binding | – | –
2 | GAME11 probe (dsDNA) DNA 1: AAGTAAATTATAAATATACGTGACGAAAACGATCTTTAAAATTCTTTGTA DNA 2: TACAAAGAATTTTAAAGATCGTTTTCGTCACGTATATTTATAATTTACTT | no binding | no binding | – | –
3 | GAME18 probe (dsDNA) DNA 1: TGATACAACTAAAAGACATACGTTTAAAAAAGCAAATTGATCAAGTCGTTTG DNA 2: CAAACGACTTGATCAATTTGCTTTTTTAAACGTATGTCTTTTAGTTGTATCA | no binding | no binding | – | –
4 | GAME12 probe (dsDNA) DNA 1: GAAACGATATAATATACGTGATACAAGTTTATTAATAAATCAATGGCCCA DNA 2: TGGGCCATTGATTTATTAATAAACTTGTATCACGTATATTATATCGTTTC | no binding | no binding | – | –
5 | GAME4 promoter G-box probe (dsDNA) DNA 1: GTTGGGGGGCTAAATTATATTCACGTGATTGTATTTTTTTTTTTAATTGC DNA 2: GCAATTAAAAAAAAAAATACAATCACGTGAATATAATTTAGCCCCCCAAC | – | – | binds | binds
6 | GAME17 promoter G-box probe (dsDNA) DNA 1: CGACATTTGATTGAATTTTAAATTTCACACGTGATACATAGATTGAGATT DNA 2: AATCTCAATCTATGTATCACGTGTGAAATTTAAAATTCAATCAAATGTCG | – | – | binds | binds
7 | GAME1 promoter G-box probe (dsDNA) DNA 1: GATTGCTTAAAGAGAGAATACCACGTGATGTCCCCCACACCACACCTGCT DNA 2: AGCAGGTGTGGTGTGGGGGACATCACGTGGTATTCTCTCTTTAAGCAATC | – | – | binds | binds
8 | GAME2 probe (dsDNA) DNA 1: ATCCCAAAAGAGTTGTTAGGTCGTGCACAAAACCCGTTTTCTGCGAAAAT DNA 2: ATTTTCGCAGAAAACGGGTTTTGTGCACGACCTAACAACTCTTTTGGGAT | no binding | no binding | – | –
